Reference: patent US20230227545A1 (published 2023)

What was measured:
cynomolgus IL-1β [1] = target: T1, cynomolgus IL-1β (cynomolgus macaque, UniProt P79182 117-268); test: cell-based or functional assay
T1 sequence (looked up): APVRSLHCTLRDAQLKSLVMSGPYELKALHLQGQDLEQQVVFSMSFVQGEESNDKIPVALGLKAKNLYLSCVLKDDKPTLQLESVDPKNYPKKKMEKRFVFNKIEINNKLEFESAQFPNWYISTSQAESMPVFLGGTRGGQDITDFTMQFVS

human IL-1β [2] = target: T2, human IL-1β (human, UniProt P01584 117-269); test: cell-based or functional assay
human IL-1β [3] = target: T2, human IL-1β; test: cell-based or functional assay; remark: listed apart in the source
human IL-1β [4] = target: T2, human IL-1β; test: cell-based or functional assay; remark: listed apart in the source
mouse IL-1β = target: T3, mouse IL-1β (mouse, UniProt P10749 118-269); test: SPR, Biacore 8K, mAb captured on anti-human Fc chip, soluble IL-1β as analyte
T3 construct: also called mouse IL-β
T3 sequence (looked up): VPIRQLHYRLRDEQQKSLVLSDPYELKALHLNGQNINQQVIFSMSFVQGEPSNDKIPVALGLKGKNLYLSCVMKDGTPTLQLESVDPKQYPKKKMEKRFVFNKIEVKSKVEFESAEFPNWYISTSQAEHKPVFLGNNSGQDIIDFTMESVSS
Protocol: (§1) Affinity assessment of 05H21A, 15N14A, and 08F17A against human IL-1β was performed by Surface Plasmon Resonance (SPR) using a Biacore 8k. Cross-reactivity of the same antibody panel was also assessed against cyno, mouse, rat and pig IL-1β.
(§2) SPR is a label-free technique to study the strength of an interaction between two binding partners by measuring the change in mass upon complex formation and dissociation. Briefly, antibodies were immobilized on a sensor chip which was coupled with goat anti-human Fc (GAH-Fc C1 sensor chip). Soluble IL-1β was flowed over the immobilized antibody and association/dissociation responses were monitored. Kinetic information (on-rate and off-rate constants) were extracted by fitting sensorgrams to the 1:1 Langmuir model. Binding affinity (KD) were reported as the ratio of rate constants (koff/kₒₙ).

pig IL-1β = target: T4, pig IL-1β (pig, UniProt P26889 115-267); test: as above
T4 construct: also called pig IL-β
T4 sequence (looked up): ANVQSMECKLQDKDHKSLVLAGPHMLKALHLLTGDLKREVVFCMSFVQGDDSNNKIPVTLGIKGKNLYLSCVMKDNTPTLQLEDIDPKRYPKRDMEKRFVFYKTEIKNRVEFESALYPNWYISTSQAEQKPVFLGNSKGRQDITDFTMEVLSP
Protocol: as §1, §2

cynomolgus IL-1β [5] = target: T1, cynomolgus IL-1β; test: SPR, Biacore 8K, mAb captured on goat anti-human Fc C1 chip, soluble IL-1β as analyte, 1:1 Langmuir fit
Protocol: as §1, §2

rat IL-1β = target: T5, rat IL-1β (rat, UniProt Q63264 117-268); test: as above
T5 construct: also called rat IL-β
T5 sequence (looked up): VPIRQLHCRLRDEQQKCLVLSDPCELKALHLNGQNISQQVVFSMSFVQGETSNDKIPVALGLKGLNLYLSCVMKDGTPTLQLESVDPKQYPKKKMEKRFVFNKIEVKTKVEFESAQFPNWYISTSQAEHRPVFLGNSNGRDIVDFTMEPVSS
Protocol: as §1, §2

human IL-1β [6] = target: T2, human IL-1β; test: as above
Protocol: as §1, §2

B1: 15N14A (antibody, human IgG1, lambda, V domains shown)
VH: QVQLQESGPGLVKPSETLSLTCTVSGGSISSYYWTWIRQPAGKGLEWIGRIDSSGSSKYNPTLKSRVTMSVDTSKNQFSLKLSSVTAADTAVYYCARGDSGYDWAFDYWGQGTLVTVSS
VL: QAVLTQPSSLSASPGASASLTCTLRSGINVGTYRIYWYQQKPGSPPQYLLSYKSDSDKQQGSGVPSRFSGSKDASANVGILLISGLQSEDEADYYCMIWHSSAWVFGGGTKLTVLG
notes: Lambda light chain; also called 15N14A (anti-IL-1β) mAb [IgG1: YTE]
IC30, inhibition of G-CSF release, cynomolgus lung fibroblasts (CLF), 15 pM rcynoIL-1β (cynomolgus IL-1β [1]): 0.129 nM | IC30, inhibition of IL-6 release, cynomolgus dermal fibroblasts (CDF), 5 pM rcynoIL-1β (cynomolgus IL-1β [1]): 93 pM | IC30, inhibition of IL-6 release, cynomolgus lung fibroblasts (CLF), 15 pM rcynoIL-1β (cynomolgus IL-1β [1]): 0.192 nM | IC50, inhibition of G-CSF release, cynomolgus lung fibroblasts (CLF), 15 pM rcynoIL-1β (cynomolgus IL-1β [1]): 0.261 nM | IC50, inhibition of IL-6 release, cynomolgus dermal fibroblasts (CDF), 5 pM rcynoIL-1β (cynomolgus IL-1β [1]): 0.156 nM | IC50, inhibition of IL-6 release, cynomolgus lung fibroblasts (CLF), 15 pM rcynoIL-1β (cynomolgus IL-1β [1]): 0.376 nM | IC90, inhibition of G-CSF release, cynomolgus lung fibroblasts (CLF), 15 pM rcynoIL-1β (cynomolgus IL-1β [1]): 1.63 nM | IC90, inhibition of IL-6 release, cynomolgus dermal fibroblasts (CDF), 5 pM rcynoIL-1β (cynomolgus IL-1β [1]): 0.594 nM | IC90, inhibition of IL-6 release, cynomolgus lung fibroblasts (CLF), 15 pM rcynoIL-1β (cynomolgus IL-1β [1]): 2.14 nM | IC30, inhibition of rhIL-1β-induced CXCL5 release, human whole blood (5 donors) (human IL-1β [2]): 0.364 nM | IC30, inhibition of rhIL-1β-induced G-CSF release, human whole blood (5 donors) (human IL-1β [2]): 0.299 nM | IC30, inhibition of rhIL-1β-induced IL-6 release, human whole blood (5 donors) (human IL-1β [2]): 0.36 nM | IC50, inhibition of rhIL-1β-induced CXCL5 release, human whole blood (5 donors) (human IL-1β [2]): 0.603 nM | IC50, inhibition of rhIL-1β-induced G-CSF release, human whole blood (5 donors) (human IL-1β [2]): 0.52 nM | IC50, inhibition of rhIL-1β-induced IL-6 release, human whole blood (5 donors) (human IL-1β [2]): 0.595 nM | IC90, inhibition of rhIL-1β-induced CXCL5 release, human whole blood (5 donors) (human IL-1β [2]): 2.24 nM | IC90, inhibition of rhIL-1β-induced G-CSF release, human whole blood (5 donors) (human IL-1β [2]): 2.18 nM | IC90, inhibition of rhIL-1β-induced IL-6 release, human whole blood (5 donors) (human IL-1β [2]): 2.18 nM | IC30, inhibition of rhIL-1β-induced cytokine release, NHDF donor 29114 (human IL-1β [3]): 0.069 nM | IC30, inhibition of rhIL-1β-induced cytokine release, NHLF donor 34325 (human IL-1β [3]): 0.128 nM | IC30, inhibition of rhIL-1β-induced cytokine release, NHLF donor 35234 (human IL-1β [3]): 0.09 nM | IC50, inhibition of rhIL-1β-induced cytokine release, NHDF donor 29114 (human IL-1β [3]): 0.127 nM | IC50, inhibition of rhIL-1β-induced cytokine release, NHLF donor 34325 (human IL-1β [3]): 0.253 nM | IC50, inhibition of rhIL-1β-induced cytokine release, NHLF donor 35234 (human IL-1β [3]): 0.178 nM | IC90, inhibition of rhIL-1β-induced cytokine release, NHDF donor 29114 (human IL-1β [3]): 0.626 nM | IC90, inhibition of rhIL-1β-induced cytokine release, NHLF donor 34325 (human IL-1β [3]): 1.48 nM | IC90, inhibition of rhIL-1β-induced cytokine release, NHLF donor 35234 (human IL-1β [3]): 1.04 nM | IC30, inhibition of IL-6 release, human PBMCs (n=5 donors), 10 pM rhIL-1β (human IL-1β [4]): 32 pM | IC30, inhibition of IL-6 release, human PBMCs (n=5 donors), 30 pM rhIL-1β (human IL-1β [4]): 75 pM | IC50, inhibition of IL-6 release, human PBMCs (n=5 donors), 10 pM rhIL-1β (human IL-1β [4]): 56 pM | IC50, inhibition of IL-6 release, human PBMCs (n=5 donors), 30 pM rhIL-1β (human IL-1β [4]): 0.12 nM | IC90, inhibition of IL-6 release, human PBMCs (n=5 donors), 10 pM rhIL-1β (human IL-1β [4]): 0.226 nM | IC90, inhibition of IL-6 release, human PBMCs (n=5 donors), 30 pM rhIL-1β (human IL-1β [4]): 0.409 nM | binding result (mouse IL-1β): no binding | binding result (pig IL-1β): no binding | Kd (cynomolgus IL-1β [5]): 0.07 nM | koff (cynomolgus IL-1β [5]): 0.000209 s⁻¹ | kon (cynomolgus IL-1β [5]): 3.01e+06 M⁻¹ s⁻¹ | Kd (rat IL-1β): 74.5 nM | koff (rat IL-1β): 0.0574 s⁻¹ | kon (rat IL-1β): 771000 M⁻¹ s⁻¹ | Kd (human IL-1β [6]): 0.064 nM | koff (human IL-1β [6]): 0.000141 s⁻¹ | kon (human IL-1β [6]): 2.2e+06 M⁻¹ s⁻¹
